For this test, the target named is T1, phosphodiesterase-δ (PDEδ) (UniProt O43924 1-150).
T1 construct: also called His6-MBP-tev-PDEδ; source: E. coli, purified
Description: ITC; 1 mM KRAS4a(167–186)HVR-FMe peptide in the syringe, 200 μM PDEδ in the cell; 25°C; 20 mM Hepes pH 7.3, 150 mM NaCl, 5 mM MgCl2, 1 mM TCEP; single binding site model. Particulars: both partners purified. On the technique in general: ITC needs no label: the signal is the heat of the interaction.

No end group written: not given here. *: point of attachment. Farnesyl = CC(C)=CCC/C(C)=C/CC/C(C)=C/C*

T1 sequence (O43924 whole entry, stated change not applied): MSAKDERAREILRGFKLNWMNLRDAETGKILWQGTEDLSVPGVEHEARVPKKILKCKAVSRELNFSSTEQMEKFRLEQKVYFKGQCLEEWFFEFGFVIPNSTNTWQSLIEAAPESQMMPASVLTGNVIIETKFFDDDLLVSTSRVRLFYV

B1: KRAS4a(167–186)HVR-FMe peptide (peptide, UniProt P01116-1 167-186, looked up)
peptide: RLKKISKEEKTPGCVKIKKC(Farnesyl)-OMe
notes: KRAS splice variant KRAS4a, hypervariable region, residues 167 to 186 (20-mer ending at the prenylated cysteine); also called prenylated 20-residue KRAS4a HVR peptide; KRAS4a-HVR peptide; source: synthetic peptide, bought: AnaSpec Peptides Inc
In general, Kd refers to the constant that tells how readily two partners part at equilibrium. A high value points to weaker binding. The molecule B1 displayed a Kd of 27 µM.

Values taken from paper PMC11636682 (Science Advances, 2024).
